From US20130336951A1 (CENTRE FOR ADDICTION AND MENTAL HEALTH, published 2013)

B1: GST-GluR2 NTb (K272-I421) (other, UniProt P19491 272-421, looked up)
chain: KFIERWSTLEEKEYPGAHTATIKYTSALTYDAVQVMTEAFRNLRKQRIEISRRGNAGDCLANPAVPWGQGVEIERALKQVQVEGLSGNIKFDQNGKRINYTINIMELKTNGPRKIGYWSEVDKMVVTLTELPSGNDTSGLENKTVVVTTI
notes: range 272-421; also called GST-GluR2NT2; GluR2NT2; not shown: glutathione S-transferase (GST) encoded by vector pGEX-4T3
B2: Glyceraldehyde 3-phosphate-dehydrogenase (GAPDH), endogenous protein of rat hippocampus (enzyme)
chain: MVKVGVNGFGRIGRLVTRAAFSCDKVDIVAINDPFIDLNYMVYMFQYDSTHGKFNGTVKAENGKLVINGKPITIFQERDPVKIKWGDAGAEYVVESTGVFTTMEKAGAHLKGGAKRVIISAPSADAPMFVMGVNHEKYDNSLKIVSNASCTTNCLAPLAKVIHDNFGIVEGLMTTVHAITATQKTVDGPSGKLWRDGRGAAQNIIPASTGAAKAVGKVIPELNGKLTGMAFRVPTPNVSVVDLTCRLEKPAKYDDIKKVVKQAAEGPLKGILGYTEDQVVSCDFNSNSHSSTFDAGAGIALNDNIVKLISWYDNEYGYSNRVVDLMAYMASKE
notes: Native protein in rat hippocampal extracts, primary rat hippocampal neurons and rat brain
B3: GST-GluR2 NTa5 (Q222-S271) (other, UniProt P19491 222-271, looked up)
chain: QVITIGKHVKGYHYIIANLGFTDGDLLKIQFGGANVSGFQIVDYDDSLVS
notes: range 222-271; also called GluR2NT1-5; not shown: glutathione S-transferase (GST) encoded by vector pGEX-4T3
B4: GST-GluR2 NTc (L422-E545) (other, UniProt P19491 422-545, looked up)
chain: LESPYVMMKKNHEMLEGNERYEGYCVDLAAEIAKHCGFKYKLTIVGDGKYGARDADTKIWNGMVGELVYGKADIAIAPLTITLVREEVIDFSKPFMSLGISIMIKKPQKSKPGVFSFLDPLAYE
notes: range 422-545; also called GST-GluR2NT3; GluR2NT3; not shown: glutathione S-transferase (GST) encoded by vector pGEX-4T3
B5: GST-GluR2 NTa2 (A72-T121) (other, UniProt P19491 72-121, looked up)
chain: AVTNAFCSQFSRGVYAIFGFYDKKSVNTITSFCGTLHVSFITPSFPTDGT
notes: range 72-121; also called GluR2NT1-2; not shown: glutathione S-transferase (GST) encoded by vector pGEX-4T3
B6: p53, endogenous protein of rat hippocampus (other, UniProt P10361 1-391, looked up)
chain: MEDSQSDMSIELPLSQETFSCLWKLLPPDDILPTTATGSPNSMEDLFLPQDVAELLEGPEEALQVSAPAAQEPGTEAPAPVAPASATPWPLSSSVPSQKTYQGNYGFHLGFLQSGTAKSVMCTYSISLNKLFCQLAKTCPVQLWVTSTPPPGTRVRAMAIYKKSQHMTEVVRRCPHHERCSDGDGLAPPQHLIRVEGNPYAEYLDDRQTFRHSVVVPYEPPEVGSDYTTIHYKYMCNSSCMGGMNRRPILTIITLEDSSGNLLGRDSFEVRVCACPGRDRRTEEENFRKKEEHCPELPPGSAKRALPTSTSSSPQQKKKPLDGEYFTLKIRGRERFEMFRELNEALELKDARAAEESGDSRAHSSYPKTKKGQSTSRHKKPMIKKVGPDSD
B7: GST-GluR2 NTa1 (V22-F71) (other, UniProt P19491 22-71, looked up)
chain: VSSNSIQIGGLFPRGADQEYSAFRVGMVQFSTSEFRLTPHIDNLEVANSF
notes: range 22-71; also called GluR2NT1-1; not shown: glutathione S-transferase (GST) encoded by vector pGEX-4T3
B8: GST-GluR2 NTa4 (K172-D221) (other, UniProt P19491 172-221, looked up)
chain: KWQVTAINVGNINNDKKDETYRSLFQDLELKKERRVILDCERDKVNDIVD
notes: range 172-221; also called GluR2NT1-4; not shown: glutathione S-transferase (GST) encoded by vector pGEX-4T3

Legend:
[1] = molecular target: T1, [35S]-GAPDH probe (in vitro translated, [35S]-methionine labelled GAPDH) (Homo sapiens, UniProt P04406 1-335, limits assumed, [35S]-methionine labelled); assay: repeated in vitro binding assay with in vitro translated probe
T1 sequence (P04406 whole entry): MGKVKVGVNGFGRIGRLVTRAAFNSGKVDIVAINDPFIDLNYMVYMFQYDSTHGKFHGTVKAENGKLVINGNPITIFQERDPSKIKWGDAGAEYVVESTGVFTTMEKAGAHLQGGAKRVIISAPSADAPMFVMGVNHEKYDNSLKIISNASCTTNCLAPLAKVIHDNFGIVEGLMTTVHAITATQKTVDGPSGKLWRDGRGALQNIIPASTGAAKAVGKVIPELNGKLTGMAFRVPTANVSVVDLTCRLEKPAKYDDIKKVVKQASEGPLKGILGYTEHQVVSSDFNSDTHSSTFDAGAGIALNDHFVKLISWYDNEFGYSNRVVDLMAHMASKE

[2] = molecular target: T2, GST-GluR1NT (A19-E538) (UniProt P19490 19-538); assay: GST pull-down from rat hippocampal extracts, Coomassie-stained SDS-PAGE
T2 construct: range 19-538; Control fusion protein; not shown: glutathione S-transferase (GST) encoded by vector pGEX-4T3

[3] = molecular target: T3, GST alone (UniProt P08515 1-218 = GST); assay: GST pull-down, Western blot for GAPDH
T3 construct: Negative control; also called GST peptide
T3 sequence (P08515 whole entry): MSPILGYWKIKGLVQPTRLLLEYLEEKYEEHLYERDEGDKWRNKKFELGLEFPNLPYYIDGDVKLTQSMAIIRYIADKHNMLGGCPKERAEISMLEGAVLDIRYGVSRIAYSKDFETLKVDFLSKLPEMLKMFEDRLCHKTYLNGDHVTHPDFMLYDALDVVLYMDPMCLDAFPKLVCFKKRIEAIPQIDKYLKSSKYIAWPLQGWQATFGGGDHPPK

[4] = molecular target: B4; assay: repeated GST pull-down from rat hippocampal tissue
[5] = molecular target: B1; assay: repeated GST pull-down from rat hippocampal tissue
[6] = molecular target: B2; assay: GST pull-down, Western blot for GAPDH
[7] = molecular target: T1, [35S]-GAPDH probe (in vitro translated, …); assay: blot overlay with in vitro translated probe
[8] = molecular target: T4, GST-GluR2NT (V22-E545) (Rattus norvegicus (Rat), UniProt P19491 22-545); assay: GST pull-down, Western blot for p53 (FIG. 24A)
T4 construct: Bacterial GST fusion on glutathione-Sepharose; not shown: glutathione S-transferase (GST) encoded by vector pGEX-4T3

[9] = molecular target: B2; assay: repeated GST pull-down from rat hippocampal tissue

Binder: B1
binding result [1]: no binding

Binder: B2
binding result [2]: no binding
binding result [3]: no binding
binding result [4]: no binding
binding result [5]: no binding

Binder: B3
binding result [6]: no binding
binding result [7]: no binding

Binder: B4
binding result [1]: no binding

Binder: B5
binding result [6]: no binding
binding result [7]: no binding

Binder: B6
binding result [8]: no binding

Binder: B7
binding result [7]: no binding
binding result [9]: no binding

Binder: B8
binding result [6]: no binding
binding result [7]: no binding
